These results are taken from US20260176342A1 (CITRYLL B V, published 2026).

Numbering of substitutions follows the chain as printed. Square brackets hold non-standard residues; d marks the D form. Ends that are not written are not given here. Cit = NC(=O)NCCC[C@H](N)C(=O)O

Assay [1] addresses T1, citrullinated histone 4-derived peptide (SEQ ID NO: 20), C-terminal biotin (human, citrulline at position 3; biotin at the C-terminus).
T1 construct: Immobilized on streptavidin biosensors (Octet RED96); also called H4-derived peptide; N-terminal histone 4 peptide
T1 peptide: SGXGKGGKGLGK
Put plainly: Octet RED96 off-rate screen, biotinylated peptide on streptavidin biosensors, antibody 72 nM, 30 C. The protocol: (§1) Off-rate screening of the isomerization-mutated antibodies was performed on an Octet® RED96 (biomolecule detection system) instrument (Pall ForteBio). All measurements were performed at 30° C. Streptavidin (SA) biosensors were first washed for 50 sec with PBS. 1 μg/ml N-terminal histone 2A (SEQ ID NO: 18) and histone 4 (SEQ ID NO: 20) peptides, containing both a citrulline at position 3 and a biotin at the C-terminus, were immobilized on SA biosensors for 200 sec, washed with PBS for 50 sec and excess reactive streptavidin molecules blocked with EZ-Link™ biocytin for 200 sec. After two additional 50 sec wash steps in PBS, antibodies at a concentration of 72 nM diluted in PBS were allowed to bind to the biosensors for 200 sec. Sensors were subsequently placed in PBS for 4000 sec in order to measure their dissociation rates.
(§2) Background signals generated with non-coated biosensors, which have been exposed to the various antibodies as well as signals from coated biosensors that have not been exposed to the various antibodies, have been subtracted before dissociation curves for each antibody were plotted. Both histone 2A and histone 4 dissociation rates constants (kdis×E-07 (1/s)) for each antibody were calculated applying a 1:1 interaction model (fitting local, full) using ForteBio data analysis software 8.1.
(Biolayer interferometry detects binding as a change in optical thickness at a sensor tip.)

The target of assay [2] is T2, citrullinated histone 2A-derived peptide (SEQ ID NO: 18), C-terminal biotin (human).
T2 construct: Captured by its biotin on NeutrAvidin plates (ELISA) or streptavidin biosensors (Octet); also called histone-derived peptide; citrullinated H2A-derived peptide
T2 peptide: SG[Cit]GKQGGKARA-biotin
Described as above. The protocol:
as §1, §2

For assay [3], the target named is T2, citrullinated histone 2A-derived …. Put plainly: CMC ELISA, biotinylated peptide on NeutrAvidin-coated plate, anti-human-HRP, OD 450 nm. As to the method: (§3) hMQ22.101j/e samples from week 0, 2, 4, 6 and 8, and hMQ22.101f/g samples from week 0, 3 and 6 were subjected to an in house-validated CMC ELISA. 96-well ELISA plates were coated with NeutrAvidin™ ([…]) by overnight incubation at 4° C. Wells were washed 5 times with PBS-Tween® (polysorbate) 20 (PBS-T) and blocked by a 2 hour incubation with PBS-T+1% Bovine serum albumin (BSA) at room temperature (RT). After 5 more washes with PBS-T, wells were incubated for 1 hour at RT with a histone-derived peptide (SEQ ID NO 18: SGXGKQGGKARA), containing a citrulline (X) at position 3 and a C-terminal biotin (40 ng/well) in PBS-T+0.2% BSA. After another 5 washes with PBS-T, a calibration curve made from a reference lot of hMQ22.101j/e or hMQ22.101f/g by adding to the wells starting at […] and further diluted at a 1:1 ratio until reaching a concentration of 0.66 ng/ml in PBS-T+0.2% BSA. Spiked quality control (QC) samples made from the same reference lot hMQ22.101j/e or hMQ22.101f/g at higher (HQC, 250 ng/ml), middle (MQC, 50 ng/ml), lower (LQC 3.75 ng/ml) and lower limit quality control (LLQC, 1.25 ng/ml) were diluted in PBS-T+0.2% BSA and added to the plate as well. These QC samples were used in order to validate the ELISA results.
(§4) Finally, accelerated stability samples that had been incubated for 0, 2, 3, 4, 6 and 8 weeks at 37° C. were added to the same plate at a concentration of 40 ng/ml in PBS-T+0.2% BSA and incubated for 2 hours at RT. Wells were washed 5 times with PBS-T and incubated with rabbit anti-human-HRP antibody (1:12.000 in PBS-T+0.2% BSA) for 1 hour at RT followed by 3 washes with PBS-T and 3 washes with PBS. Wells were incubated 10 min with TMB substrate before stopping the reaction with 2 M H₂SO₄ after which the optical density was measured at wavelength of 450 nm. A sigmoidal calibration curve was plotted and fitted using the values from the serial diluted reference antibody. Concentrations of the QC samples and accelerated stability samples were recalculated using the equation from the sigmoidal fitted curve.

The target is the same in assay [4]. In words: CMC ELISA, biotinylated peptide on NeutrAvidin-coated plate, anti-human-HRP, OD 450 nm, interpolated on the hMQ22.101f/g calibration curve. The protocol:
as §3, §4
A general note: An ELISA detects its analyte on a solid surface through an enzyme-linked reagent.

B1: hMQ22.101j/LC17 (antibody, V domains shown)
VH: QVQLVQSGAEVKKPGASVKVSCKASGYTFTNYGMHWVRQAPGQGLEWMGWINTYSGEATYAQKFQGRVTMTRDTSISTAYMELSRLRSDDTAVYYCLRGYTYQSFDEGGDYWGQGTLVTVSS
VL: DVVMTQSPLSLPVTLGQPASISCRSSQSLLDTDGKTYLNWFQQRPGQSPRRLIYLVSKLDSGVPDRFSGSGSGTDFTLKISRVEAEDVGVYYCWQGTHFPYTFGQGTKLEIK
notes: also called isomerization mutant; heavy chain hVH22.101j with light chain hVL22.101LC17
Turning to B1, the binding result in assay [1] and in assay [2] was “binds” throughout.

B2: hMQ22.101HC9/LC27 (antibody, V domains shown)
VH: B1 VH with Q1R, V2I, A61V, Q62D, K63D
VL: B1 VL with G34A
notes: also called isomerization mutant; heavy chain hVH22.101HC9 with light chain hVL22.101LC27
On to B2, for which the binding result in assay [1] and in assay [2] was “binds” each time.

B3: hMQ22.101j/i (antibody, V domains shown)
VH: B1 VH
VL: B1 VL with L30V, D31E, T32S
notes: also called VL CDR1 aspartate-mutated antibody (DS site to ES); heavy chain hVH22.101j with light chain hVL22.101i
As for B3, the binding result in assay [3] is recorded as “binds”.

B4: hMQ22.101f/LC41 (antibody, V domains shown)
VH: B1 VH with Q1R, V2I
VL: B1 VL with T32A
notes: also called development candidate; isomerization mutant
Regarding B4, the binding result in assay [4] was “binds”.

B5: hMQ22.101j/LC21 (antibody, V domains shown)
VH: B1 VH
VL: B1 VL with T32S, G34A
notes: also called isomerization mutant; heavy chain hVH22.101j with light chain hVL22.101LC21
As for B5, the binding result in assay [1] and in assay [2] was “binds” throughout.

B6: hMQ22.101j/LC41 (antibody, V domains shown)
VH: B1 VH
VL: B1 VL with T32A
notes: also called isomerization mutant; heavy chain hVH22.101j with light chain hVL22.101LC41
As to B6, the binding result in assay [1] and in assay [2] was “binds” in each case.

B7: hMQ22.101f/LC42 (antibody, V domains shown)
VH: B1 VH with Q1R, V2I
VL: B1 VL with T32N
notes: also called isomerization mutant; heavy chain hVH22.101f with light chain hVL22.101LC42
For B7, the binding result in assay [4] was “binds”.

B8: hMQ22.101HC7/LC42 (antibody, V domains shown)
VH: B1 VH with A16S, M70I, R72A, T74E, I76T, R85S, D89E
VL: B1 VL with T32N
notes: also called isomerization mutant; heavy chain hVH22.101HC7 with light chain hVL22.101LC42
In the case of B8, the binding result in assay [1] and in assay [2] was “binds” throughout.

B9: hMQ22.101HC9/LC41 (antibody, V domains shown)
VH: B1 VH with Q1R, V2I, A61V, Q62D, K63D
VL: B1 VL with T32A
notes: also called isomerization mutant; heavy chain hVH22.101HC9 with light chain hVL22.101LC41
As for B9, the binding result in assay [1] and in assay [2] was “binds” throughout.

B10: hMQ22.101HC8/LC42 (antibody, V domains shown)
VH: B1 VH with A16S, A61V, Q62D, K63D, M70I, R72A, T74E, I76T, R85S, D89E
VL: B1 VL with T32N
notes: also called isomerization mutant; heavy chain hVH22.101HC8 with light chain hVL22.101LC42
For the molecule B10, the binding result in assay [1] and in assay [2] was “binds” each time.

B11: hMQ22.101HC7/LC27 (antibody, V domains shown)
VH: B1 VH with A16S, M70I, R72A, T74E, I76T, R85S, D89E
VL: B1 VL with G34A
notes: also called isomerization mutant; heavy chain hVH22.101HC7 with light chain hVL22.101LC27
As to B11, the binding result in assay [1] and in assay [2] was “binds” throughout.

B12: hMQ22.101HC8/LC27 (antibody, V domains shown)
VH: B1 VH with A16S, A61V, Q62D, K63D, M70I, R72A, T74E, I76T, R85S, D89E
VL: B1 VL with G34A
notes: also called isomerization mutant; heavy chain hVH22.101HC8 with light chain hVL22.101LC27
On to B12, for which the binding result in assay [1] and in assay [2] was “binds” each time.

B13: hMQ22.101j/h (antibody, V domains shown)
VH: B1 VH
VL: B1 VL with L30V, D31A, T32S
notes: also called VL CDR1 aspartate-mutated antibody (DS site to AS)
B13: in assay [3], the binding result is on record as “binds”.

B14: hMQ22.101j/LC42 (antibody, V domains shown)
VH: B1 VH
VL: B1 VL with T32N
notes: also called isomerization mutant; heavy chain hVH22.101j with light chain hVL22.101LC42
Consider B14, for which the binding result in assay [1] and in assay [2] was “binds” each time.

B15: hMQ22.101HC8/LC21 (antibody, V domains shown)
VH: B1 VH with A16S, A61V, Q62D, K63D, M70I, R72A, T74E, I76T, R85S, D89E
VL: B1 VL with T32S, G34A
notes: also called isomerization mutant; heavy chain hVH22.101HC8 with light chain hVL22.101LC21
Regarding B15, the binding result in assay [1] and in assay [2] was “binds” throughout.

B16: hMQ22.101HC7/LC17 (antibody, V domains shown)
VH: B1 VH with A16S, M70I, R72A, T74E, I76T, R85S, D89E
VL: B1 VL
notes: also called isomerization mutant; heavy chain hVH22.101HC7 with light chain hVL22.101LC17
On to B16, for which the binding result in assay [1] and in assay [2] was “binds” in each case.

B17: hMQ22.101f/LC27 (antibody, V domains shown)
VH: B1 VH with Q1R, V2I
VL: B1 VL with G34A
notes: also called isomerization mutant; heavy chain hVH22.101f with light chain hVL22.101LC27
Regarding B17, in assay [4], the binding result is recorded as “binds”.

B18: hMQ22.101f/LC17 (antibody, V domains shown)
VH: B1 VH with Q1R, V2I
VL: B1 VL
notes: also called isomerization mutant; heavy chain hVH22.101f with light chain hVL22.101LC17
Consider B18, for which the binding result in assay [4] is listed as “binds”.

B19: hMQ22.101HC9/LC21 (antibody, V domains shown)
VH: B1 VH with Q1R, V2I, A61V, Q62D, K63D
VL: B1 VL with T32S, G34A
notes: also called isomerization mutant; heavy chain hVH22.101HC9 with light chain hVL22.101LC21
Turning to B19, the binding result in assay [1] and in assay [2] was “binds” each time.

B20: hMQ22.101HC8/LC17 (antibody, V domains shown)
VH: B1 VH with A16S, A61V, Q62D, K63D, M70I, R72A, T74E, I76T, R85S, D89E
VL: B1 VL
notes: also called isomerization mutant; heavy chain hVH22.101HC8 with light chain hVL22.101LC17
On to B20, for which the binding result in assay [1] and in assay [2] was “binds” each time.

B21: hMQ22.101j/LC27 (antibody, V domains shown)
VH: B1 VH
VL: B1 VL with G34A
notes: also called isomerization mutant; heavy chain hVH22.101j with light chain hVL22.101LC27
Consider B21, for which the binding result in assay [1] and in assay [2] was “binds” throughout.

B22: hMQ22.101HC7/LC41 (antibody, V domains shown)
VH: B1 VH with A16S, M70I, R72A, T74E, I76T, R85S, D89E
VL: B1 VL with T32A
notes: also called isomerization mutant; heavy chain hVH22.101HC7 with light chain hVL22.101LC41
Take B22: the binding result in assay [1] and in assay [2] was “binds” each time.

B23: hMQ22.101HC9/LC17 (antibody, V domains shown)
VH: B1 VH with Q1R, V2I, A61V, Q62D, K63D
VL: B1 VL
notes: also called isomerization mutant; heavy chain hVH22.101HC9 with light chain hVL22.101LC17
As to B23, the binding result in assay [1] and in assay [2] was “binds” in each case.

B24: hMQ22.101HC7/LC21 (antibody, V domains shown)
VH: B1 VH with A16S, M70I, R72A, T74E, I76T, R85S, D89E
VL: B1 VL with T32S, G34A
notes: also called isomerization mutant; heavy chain hVH22.101HC7 with light chain hVL22.101LC21
For the molecule B24, the binding result in assay [1] and in assay [2] was “binds” each time.

B25: hMQ22.101HC9/LC42 (antibody, V domains shown)
VH: B1 VH with Q1R, V2I, A61V, Q62D, K63D
VL: B1 VL with T32N
notes: also called isomerization mutant; heavy chain hVH22.101HC9 with light chain hVL22.101LC42
Take B25: the binding result in assay [1] and in assay [2] was “binds” each time.

B26: hMQ22.101HC8/LC41 (antibody, V domains shown)
VH: B1 VH with A16S, A61V, Q62D, K63D, M70I, R72A, T74E, I76T, R85S, D89E
VL: B1 VL with T32A
notes: also called isomerization mutant; heavy chain hVH22.101HC8 with light chain hVL22.101LC41
Turning to B26, the binding result in assay [1] and in assay [2] was “binds” in each case.
